Substitutions are numbered along the chain they refer to.
T1: FcgRIIb (human, UniProt P31994)
T1 chain: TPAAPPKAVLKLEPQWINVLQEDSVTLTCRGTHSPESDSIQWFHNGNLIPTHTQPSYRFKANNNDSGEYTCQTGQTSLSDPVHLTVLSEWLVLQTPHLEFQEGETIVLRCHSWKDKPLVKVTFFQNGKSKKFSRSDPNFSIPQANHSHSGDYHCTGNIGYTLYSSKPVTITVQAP

T2: FcgRIa (human, UniProt P12314)
T2 chain: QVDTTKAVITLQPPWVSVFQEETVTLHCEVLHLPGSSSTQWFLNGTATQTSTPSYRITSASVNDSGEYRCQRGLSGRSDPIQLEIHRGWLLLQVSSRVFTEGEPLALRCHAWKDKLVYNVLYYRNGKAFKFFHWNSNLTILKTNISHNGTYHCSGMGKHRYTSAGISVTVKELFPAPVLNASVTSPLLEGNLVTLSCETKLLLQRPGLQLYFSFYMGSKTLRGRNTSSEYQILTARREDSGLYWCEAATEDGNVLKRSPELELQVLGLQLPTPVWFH

T3: FcgRIIaR (human, UniProt P12318)
T3 chain: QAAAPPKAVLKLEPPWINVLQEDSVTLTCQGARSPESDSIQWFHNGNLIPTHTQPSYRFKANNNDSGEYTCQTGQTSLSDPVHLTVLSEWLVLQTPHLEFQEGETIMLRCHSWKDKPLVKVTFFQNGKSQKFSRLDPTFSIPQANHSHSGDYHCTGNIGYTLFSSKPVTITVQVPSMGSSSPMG

T4: FcgRIIaH (human, UniProt P12318)
T4 chain: T3 chain with R134H

B1: IL6R-BP300/IL6R-L (antibody)
chain 1: QVQLQESGPGLVKPSETLSLTCAVSGHSISHDHAWSWVRQPPGEGLEWIGFISYSGITNYNPSLQGRVTISRDNSKNTLYLQMNSLRAEDTAVYYCARSLARTTAMDYWGEGTLVTVSSASTKGPSVFPLAPSSKSTSGGTAALGCLVKDYFPEPVTVSWNSGALTSGVHTFPAVLQSSGLYSLSSVVTVPSSSLGTQTYICNVNHKPSNTKVDKKVEPKSCDKTHTCPPCPAPDLLGDDSVFLFPPKPKDTLMISRTPEVTCIVVDVSEEDGEVKFNWYVDGVEVHNAKTKPREEQYNSTYRVVSVLTVLHQDWLNGKEYKCKVSNKALPAPIEKTISKAKGQPREPQVYTLPPSRDELTKNQVSLTCLVKGFYPSDIAVEWESNGQPENNYKTTPPVLDSDGSFFLYSKLTVDKSRWQQGNVFSCSVMHEALHNHYTQESLSLSP
chain 2: not shown
B2: IL6R-BP339/IL6R-L (antibody)
chain 1: B1 chain 1 with I264V, V266M
chain 2: not shown
B3: IL6R-BP338/IL6R-L (antibody)
chain 1: B1 chain 1 with I264V, V266L
chain 2: not shown
B4: IL6R-BP333/IL6R-L (antibody)
chain 1: B1 chain 1 with I264V, V266F
chain 2: not shown
B5: IL6R-BP249/IL6R-L (antibody)
chain 1: B1 chain 1 with L236Y, I264V, E270D, Y298D, A332R
chain 2: not shown
B6: IL6R-BP243/IL6R-L (antibody)
chain 1: B1 chain 1 with L236Y, I264V, E270D, A332R
chain 2: not shown
B7: IL6R-BP225/IL6R-L (antibody)
chain 1: B1 chain 1 with D235E, L236Y, I264V, E270H, G273P, K328D, A332R
chain 2: not shown
B8: IL6R-BP233/IL6R-L (antibody)
chain 1: B1 chain 1 with D235E, L236Y, I264V, E270H, A332K
chain 2: not shown
B9: IL6R-BP246/IL6R-L (antibody)
chain 1: B1 chain 1 with I264V, S269Q, E270D, Y298D, K328A, A332R
chain 2: not shown
B10: IL6R-BP220/IL6R-L (antibody)
chain 1: B1 chain 1 with I264V, E270D, Y298D, A332K
chain 2: not shown
B11: IL6R-AP002/IL6R-BP256/IL6R-L (antibody)
chain 1: B1 chain 1 with I264V, E270D, A332R, D358K, H437R, E441K
chain 2: B1 chain 1 with S126D, I264V, E270D, A332R
chain 3: not shown
B12: IL6R-AP002/IL6R-BP257/IL6R-L (antibody)
chain 1: B1 chain 1 with I264V, E270D, A332R, D358K, H437R, E441K
chain 2: B1 chain 1 with S126E, I264V, E270D, A332R
chain 3: not shown
B13: IL6R-AP009/IL6R-BP260/IL6R-L (antibody)
chain 1: B1 chain 1 with I264V, E270D, Y298D, A332R, D358K, H437R, E441K
chain 2: B1 chain 1 with S126E, I264V, E270D, Y298D, A332R
chain 3: not shown
B14: IL6R-AP009/IL6R-BP259/IL6R-L (antibody)
chain 1: B1 chain 1 with I264V, E270D, Y298D, A332R, D358K, H437R, E441K
chain 2: B1 chain 1 with S126D, I264V, E270D, Y298D, A332R
chain 3: not shown
B15: IL6R-BP267/IL6R-L (antibody)
chain 1: B1 chain 1 with I264V
chain 2: not shown
B16: IL6R-AP029/IL6R-BP409/IL6R-L (antibody)
chain 1: B1 chain 1 with I264V, Y298D, A332R, D358K, H437R, E441K
chain 2: B1 chain 1 with L237E, I264V, Y298D, A332R
chain 3: not shown
B17: IL6R-AP029/IL6R-BP407/IL6R-L (antibody)
chain 1: B1 chain 1 with I264V, Y298D, A332R, D358K, H437R, E441K
chain 2: B1 chain 1 with L237D, I264V, Y298D, A332R
chain 3: not shown
B18: IL6R-AP029/IL6R-BP410/IL6R-L (antibody)
chain 1: B1 chain 1 with I264V, Y298D, A332R, D358K, H437R, E441K
chain 2: B1 chain 1 with L237T, I264V, Y298D, A332R
chain 3: not shown
B19: IL6R-BP404/IL6R-L (antibody)
chain 1: B1 chain 1 with L236Y, I264V, Y298D, A332R
chain 2: not shown
B20: Fv4-P587-LS (antibody)
chain 1: B1 chain 1 with D239G, I264V, V266I, S269A, M430L, N436S, E441K
chain 2: DIQMTQSPSSLSASVGDSVTITCQASTDISSHLNWYQQKPGKAPELLIYYGSHLLSGVPSRFSGSGSGTDFTFTISSLEAEDAATYYCGQGNRLPYTFGQGTKVEIERTVAAPSVFIFPPSDEQLKSGTASVVCLLNNFYPREAKVQWKVDNALQSGNSQESVTEQDSKDSTYSLSSTLTLSKADYEKHKVYACEVTHQGLSSPVTKSFNRGEC
B21: Fv4-P587 (antibody)
chain 1: B1 chain 1 with D239G, I264V, V266I, S269A, E441K
chain 2: B20 chain 2
B22: Fv4-IgG1 (antibody)
chain 1: not shown
chain 2: B20 chain 2
B23: IL6R-BP237/IL6R-L (antibody)
chain 1: B1 chain 1 with L236Y, I264V, S269Q, E270D, Y298D, K328A, A332K
chain 2: not shown
B24: IL6R-BP228/IL6R-L (antibody)
chain 1: B1 chain 1 with D235E, L236Y, I264V, S269Q, E270D, K328D, A332R
chain 2: not shown
B25: IL6R-BP239/IL6R-L (antibody)
chain 1: B1 chain 1 with L236Y, I264V, S269Q, E270D, Y298D, K328A, A332R
chain 2: not shown
B26: IL6R-BP478/IL6R-L (antibody)
chain 1: QVQLQESGPGLVKPSETLSLTCAVSGHSISHDHAWSWVRQPPGEGLEWIGFISYSGITNYNPSLQGRVTISRDNSKNTLYLQMNSLRAEDTAVYYCARSLARTTAMDYWGEGTLVTVSSASTKGPSVFPLAPCSRSTSESTAALGCLVKDYFPEPVTVSWNSGALTSGVHTFPAVLQSSGLYSLSSVVTVPSSSLGTKTYTCNVDHKPSNTKVDKRVESKYGPPCPPCPAPDLLGDDSVFLFPPKPKDTLMISRTPEVTCVVVDVSDEDGEVKFNWYVDGVEVHNAKTKPREEQDNSTYRVVSVLTVLHQDWLNGKEYKCKVSNKALPRPIEKTISKAKGQPREPQVYTLPPSRDELTKNQVSLTCLVKGFYPSDIAVEWESNGQPENNYKTTPPVLDSDGSFFLYSKLTVDKSRWQQGNVFSCSVMHEALHNHYTQESLSLSP
chain 2: not shown

Target: T1, FcgRIIb
Experiment: SPR

Going from B1 to B2, the Kd rises from 58 nM to 130 nM (2.2-fold).

B3 and B4 are within 1.5-fold of each other in Kd: 150 nM for the first, 120 nM for the second.

Target: T2, FcgRIa
Experiment: SPR

Compared with B5, B6 is 2.3-fold lower in Kd: 7 nM for the first, 3 nM for the second. The second binds more tightly here.

B7 and B8 are within 1.5-fold of each other in Kd: 65 nM for the first, 70 nM for the second.

First: B9
Second: B10
The Kd of the first is 2.5-fold lower: 8 nM for the first, 20 nM for the second. The first binds more tightly here.

Target: T1, FcgRIIb
Experiment: SPR
Remark: another data set of the same source

B11 and B12 are within 1.5-fold of each other in Kd: 4.1 nM for the first, 4.7 nM for the second.

B13 and B14 are within 1.5-fold of each other in Kd: 4.2 nM for the first, 3.9 nM for the second.

Target: T2, FcgRIa
Experiment: SPR
Remark: another data set of the same source

Going from B1 to B2, the Kd falls from 9.6 nM to 4.6 nM (2.1-fold).

Going from B3 to B4, the Kd falls from 15 nM to 9.1 nM (1.6-fold).

Work on B15 yielded a Kd of 4 nM.

Target: T1, FcgRIIb
Experiment: SPR
Remark: another data set of the same source

B16 and B17 are within 1.5-fold of each other in Kd: 15 nM for the first, 19 nM for the second.

Compared with B18, B19 is 2-fold lower in Kd: 22 nM for the first, 11 nM for the second. The second binds more tightly here.

Target: T3, FcgRIIaR
Experiment: SPR

B11 and B12 are within 1.5-fold of each other in Kd: 140 nM for the first, 130 nM for the second.

B13 and B14 are within 1.5-fold of each other in Kd: 140 nM for the first, 190 nM for the second.

target: human FcRn (human, UniProt P55899); experiment: SPR, pH 6.0, 25C
Sequence (P55899 24-297, chain 1 of 2): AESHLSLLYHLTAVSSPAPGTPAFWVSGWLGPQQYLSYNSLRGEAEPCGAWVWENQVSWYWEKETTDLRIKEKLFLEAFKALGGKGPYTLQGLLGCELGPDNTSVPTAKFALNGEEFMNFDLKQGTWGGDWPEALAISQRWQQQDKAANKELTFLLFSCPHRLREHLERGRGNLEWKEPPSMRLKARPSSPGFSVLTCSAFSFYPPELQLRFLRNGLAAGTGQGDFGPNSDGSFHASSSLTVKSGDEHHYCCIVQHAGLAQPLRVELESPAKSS
Sequence (chain, as listed by the source, chain 2 of 2): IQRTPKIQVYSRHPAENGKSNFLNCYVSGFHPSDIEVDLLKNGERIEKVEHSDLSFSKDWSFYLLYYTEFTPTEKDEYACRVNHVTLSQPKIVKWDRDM

First: B20
Second: B21
The Kd of the first is 12-fold lower: 120 nM for the first, 1500 nM for the second. The first binds more tightly here.

For B22, the Kd was 1400 nM.

Target: T1, FcgRIIb
Experiment: SPR
Remark: another data set of the same source

Going from B23 to B24, the Kd falls from 100 nM to 40 nM (2.5-fold).

B25 showed a Kd of 60 nM.

Target: T4, FcgRIIaH
Experiment: SPR

B11 and B12 are within 1.5-fold of each other in Kd: 4200 nM for the first, 4900 nM for the second.

B13 and B14 are within 1.5-fold of each other in Kd: 5400 nM for the first, 6600 nM for the second.

Target: T1, FcgRIIb
Experiment: SPR
Remark: another data set of the same source

For B26, the Kd was 19 nM.

Target: T2, FcgRIa
Experiment: SPR
Remark: another data set of the same source

B16 and B17 are within 1.5-fold of each other in Kd: 19 nM for the first, 13 nM for the second.

Compared with B18, B19 is 1.7-fold lower in Kd: 17 nM for the first, 10 nM for the second.

Target: T3, FcgRIIaR
Experiment: SPR
Remark: another data set of the same source

Compared with B1, B2 is 2-fold higher in Kd: 690 nM for the first, 1400 nM for the second.

B3 and B4 are within 1.5-fold of each other in Kd: 2200 nM for the first, 1500 nM for the second.

Target: T2, FcgRIa
Experiment: SPR
Remark: another data set of the same source

B26 gave a Kd of 7.7 nM.

Target: T2, FcgRIa
Experiment: SPR
Remark: another data set of the same source

First: B11
Second: B12
The Kd of the first is 1.9-fold higher: 3.6 nM for the first, 1.9 nM for the second.

Compared with B13, B14 is 2.1-fold higher in Kd: 1.7 nM for the first, 3.5 nM for the second. The first binds more tightly here.

Target: T3, FcgRIIaR
Experiment: SPR
Remark: another data set of the same source

B26 showed a Kd of 540 nM.

Target: T3, FcgRIIaR
Experiment: SPR
Remark: another data set of the same source

B16 and B17 are the same in Kd: 630 nM for the first, 630 nM for the second.

First: B18
Second: B19
The Kd of the first is 1.8-fold higher: 660 nM for the first, 360 nM for the second.

Reference: patent US10919953 (dated 2021)
